Data on 1 molecule can be found in paper PMC12803513.

The assay deals with microtubules (polymers of alpha- and beta-tubulin) of Drosophila head lysate (D. melanogaster (endogenous in adult fly heads)) (UniProt P06603). The assay is described as follows: co-sedimentation; in vivo microtubule-binding assay: 50 wild-type fly heads homogenised in Buffer-C+ (50 mM HEPES pH 7.1, 1.0 mM MgCl2, 1.0 mM EGTA, protease and phosphatase inhibitors) with 20 uM Taxol; 100,000 x g for 30 min through a 50% sucrose cushion; pellet blotted with anti-Pfdn5 and anti-ace-tubulin.
Chain of UniProt P06603 (P06603 whole entry, chain 1 of 2): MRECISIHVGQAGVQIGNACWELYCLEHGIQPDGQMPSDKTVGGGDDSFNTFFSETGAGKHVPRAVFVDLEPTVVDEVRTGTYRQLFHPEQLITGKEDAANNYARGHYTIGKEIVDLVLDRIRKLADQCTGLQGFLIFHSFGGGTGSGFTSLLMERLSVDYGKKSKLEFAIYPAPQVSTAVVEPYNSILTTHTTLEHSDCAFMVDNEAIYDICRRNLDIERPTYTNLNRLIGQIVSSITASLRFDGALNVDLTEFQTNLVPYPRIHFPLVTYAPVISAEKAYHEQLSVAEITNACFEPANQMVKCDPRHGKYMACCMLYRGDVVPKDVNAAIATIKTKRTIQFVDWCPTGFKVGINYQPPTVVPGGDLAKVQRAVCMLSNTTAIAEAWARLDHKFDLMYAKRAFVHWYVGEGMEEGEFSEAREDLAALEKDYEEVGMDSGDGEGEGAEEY
Chain of UniProt P06603 (Q24560 whole entry, chain 2 of 2, further chain): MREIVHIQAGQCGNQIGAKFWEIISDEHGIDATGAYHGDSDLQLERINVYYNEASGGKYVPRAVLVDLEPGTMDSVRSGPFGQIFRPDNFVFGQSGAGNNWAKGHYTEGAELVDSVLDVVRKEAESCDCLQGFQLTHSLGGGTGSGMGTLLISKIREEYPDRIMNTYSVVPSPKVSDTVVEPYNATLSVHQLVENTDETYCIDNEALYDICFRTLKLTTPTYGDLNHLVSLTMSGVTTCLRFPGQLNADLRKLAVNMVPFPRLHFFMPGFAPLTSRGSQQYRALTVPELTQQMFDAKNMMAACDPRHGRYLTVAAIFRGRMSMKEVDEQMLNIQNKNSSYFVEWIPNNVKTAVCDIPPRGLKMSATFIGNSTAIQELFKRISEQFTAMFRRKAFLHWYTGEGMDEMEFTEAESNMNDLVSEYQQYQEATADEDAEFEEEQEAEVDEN

B1: Prefoldin 5 (natural protein)
chain: MAATPSAPAKSEMIDLTKLSPEQLIQIKQEFEQEITNVQDSLSTLHGCQAKYAGSKEALGTFQPNWENRQILVPLTSSMYVPGRVKDLNRFVIDIGTGYYIEKDLEGSKDYFKRRVEYVQEQIEKIEKIHLQKTRFYNSVMSVLEMKQAAAAKLQSQQQSQPAVTQSS
On to B1, for which the percentage of Pfdn5 in the pellet fraction came out at 36.7%.
